doi:10.1101/2023.12.05.570199

Molecular target: AliC (residues 24-655) (Streptococcus pneumoniae)
Assay: crystal structure

“AliC (residues 24-655) (natural protein)” was tested, and the stoichiometry N was 2.
